B1: PR006495 (antibody, human IgG1, kappa, V domains shown)
VH: QVQLVQSGAEVKKPGASVKVSCKASGYTFAGYYMYWVRQAPGQGLEWMGWINPDSGAPTYAQKFQGRVTMTRDTSISTAYMELSRLRSDDTAVYYCAREKIYYGSGNYYPSFDYWGQGTLVTVSS
VL: DIQLTQSPSFLSASVGDRVTITCRASQGISSYLAWYQQKPGKAPKLLIYAASTLQSGVPSRFSGSGSGTEFTLTISSLQPEDFATYYCQQLASYPWTFGQGTKVEIKR
notes: PR003379 variant L:N92A; human IgG1 L234A, L235A, G237A
B2: PR006504 (antibody, human IgG1, kappa, V domains shown)
VH: QVQLVQSGAEVKKPGASVKVSCKASGYTFAGYYMYWVRQAPGQGLEWMGWINPDSGAPTYAQKFQGRVTMTRDTSISTAYMELSRLRSDDTAVYYCAREKIYYGSGNYYPSFDYWGQGTLVTVSS
VL: DIQLTQSPSFLSASVGDRVTITCRASQGISSYLAWYQQKPGKAPKLLIYAASTLQSGVPSRFSGSGSGTEFTLTISSLQPEDFATYYCQQLVSYPWTFGQGTKVEIKR
notes: PR003379 variant L:N92V; human IgG1 L234A, L235A, G237A
B3: PR006502 (antibody, human IgG1, kappa, V domains shown)
VH: QVQLVQSGAEVKKPGASVKVSCKASGYTFAGYYMYWVRQAPGQGLEWMGWINPDSGAPTYAQKFQGRVTMTRDTSISTAYMELSRLRSDDTAVYYCAREKIYYGSGNYYPSFDYWGQGTLVTVSS
VL: DIQLTQSPSFLSASVGDRVTITCRASQGISSYLAWYQQKPGKAPKLLIYAASTLQSGVPSRFSGSGSGTEFTLTISSLQPEDFATYYCQQLDSYPWTFGQGTKVEIKR
notes: PR003379 variant L:N92D; human IgG1 L234A, L235A, G237A
B4: PR006499 (antibody, human IgG1, kappa, V domains shown)
VH: QVQLVQSGAEVKKPGASVKVSCKASGYTFAGYYMYWVRQAPGQGLEWMGWINPDSGAPTYAQKFQGRVTMTRDTSISTAYMELSRLRSDDTAVYYCAREKIYYGSGNYYPSFDYWGQGTLVTVSS
VL: DIQLTQSPSFLSASVGDRVTITCRASQGISSYLAWYQQKPGKAPKLLIYAASTLQSGVPSRFSGSGSGTEFTLTISSLQPEDFATYYCQQLWSYPWTFGQGTKVEIKR
notes: PR003379 variant L:N92W; human IgG1 L234A, L235A, G237A
B5: PR006496 (antibody, human IgG1, kappa, V domains shown)
VH: QVQLVQSGAEVKKPGASVKVSCKASGYTFAGYYMYWVRQAPGQGLEWMGWINPDSGAPTYAQKFQGRVTMTRDTSISTAYMELSRLRSDDTAVYYCAREKIYYGSGNYYPSFDYWGQGTLVTVSS
VL: DIQLTQSPSFLSASVGDRVTITCRASQGISSYLAWYQQKPGKAPKLLIYAASTLQSGVPSRFSGSGSGTEFTLTISSLQPEDFATYYCQQLFSYPWTFGQGTKVEIKR
notes: PR003379 variant L:N92F; human IgG1 L234A, L235A, G237A
B6: PR006500 (antibody, human IgG1, kappa, V domains shown)
VH: QVQLVQSGAEVKKPGASVKVSCKASGYTFAGYYMYWVRQAPGQGLEWMGWINPDSGAPTYAQKFQGRVTMTRDTSISTAYMELSRLRSDDTAVYYCAREKIYYGSGNYYPSFDYWGQGTLVTVSS
VL: DIQLTQSPSFLSASVGDRVTITCRASQGISSYLAWYQQKPGKAPKLLIYAASTLQSGVPSRFSGSGSGTEFTLTISSLQPEDFATYYCQQLMSYPWTFGQGTKVEIKR
notes: PR003379 variant L:N92M; human IgG1 L234A, L235A, G237A
B7: PR006498 (antibody, human IgG1, kappa, V domains shown)
VH: QVQLVQSGAEVKKPGASVKVSCKASGYTFAGYYMYWVRQAPGQGLEWMGWINPDSGAPTYAQKFQGRVTMTRDTSISTAYMELSRLRSDDTAVYYCAREKIYYGSGNYYPSFDYWGQGTLVTVSS
VL: DIQLTQSPSFLSASVGDRVTITCRASQGISSYLAWYQQKPGKAPKLLIYAASTLQSGVPSRFSGSGSGTEFTLTISSLQPEDFATYYCQQLISYPWTFGQGTKVEIKR
notes: PR003379 variant L:N92I; human IgG1 L234A, L235A, G237A
B8: PR006497 (antibody, human IgG1, kappa, V domains shown)
VH: QVQLVQSGAEVKKPGASVKVSCKASGYTFAGYYMYWVRQAPGQGLEWMGWINPDSGAPTYAQKFQGRVTMTRDTSISTAYMELSRLRSDDTAVYYCAREKIYYGSGNYYPSFDYWGQGTLVTVSS
VL: DIQLTQSPSFLSASVGDRVTITCRASQGISSYLAWYQQKPGKAPKLLIYAASTLQSGVPSRFSGSGSGTEFTLTISSLQPEDFATYYCQQLYSYPWTFGQGTKVEIKR
notes: PR003379 variant L:N92Y; human IgG1 L234A, L235A, G237A

Legend:
human CD40 on cells [1] = molecular target: T1, human CD40 on cells (human, UniProt P25942 21-277); assay: FACS, Raji cells
T1 construct: whole, on cells; The cell line used is named in each row's assay; also called hCD40; TNFRSF5
Excerpt: (§1) Flow cytometry (FACS) was used to detect the binding ability of the CD40 antibody to cells, such as, CHO-K1/hCD40 highly expressing human CD40 (constructed by Beijing Kyinno Biotechnology), CHO-K1/cyCD40 highly expressing cynomolgus monkey CD40 (constructed by Beijing Kyinno Biotechnology) and lymphoma cell highly expressing human CD40, Raji (ATCC, #CCL-86). Specifically, the cells were digested and resuspended with complete medium (F-12K for CHO-K1 cells; and RPMI-1640 for Raji cells); and the cells were adjusted to a cell density of 1×10⁶ cells/mL. The cells were seeded in a 96-well V-bottom plate (Corning, #3894) at 100 μL/well, and the antigen binding protein to be tested at 2x final concentration was then added at 100 μL/well and mixed evenly, with the highest final concentration of the antigen binding protein of 300 nM, a total of 8 concentrations, and 5-fold concentration gradient dilution. hIgG (Crownbio, #C0002) was used as a negative control, and the positive control molecule was the molecule in Table 1-5. The cells were incubated at 4° C. for 1 hours in the dark. After the incubation, the cells were rinsed twice by adding pre-chilled PBS at 100 μL/well, and centrifuged at 500 g at 4° C. for 5 minutes, and the supernatant was discarded. Then, a fluorescent secondary antibody (goat anti-human IgG (H+L) secondary antibody, Alexa Fluor® 488 conjugate, Invitrogen, #A11013, 1:1000 dilution) was added at 100 µL/well, and the cells were incubated at 4° C. for 30 minutes in the dark. The cells were washed twice with pre-chilled PBS at 200 μL/well, and centrifuged at 500 g at 4° C. for 5 minutes, and the supernatant was discarded. Finally, the cells were resuspended in pre-chilled PBS at 200 μL/well. The fluorescence signal values were read using a BD FACS CANTOII flow cytometer or ACEA NovoCyte flow cytometer, and the data were processed and analyzed using FlowJo v10 software (FlowJo, LLC).
(§2) Data processing and graphical analysis were performed using GraphPad Prism 8 software. The binding curve of the antibody to the target cell and parameters, such as EC50 value were obtained by four-parameter nonlinear fitting.

human CD40 on cells [2] = molecular target: T1, human CD40 on cells; assay: cell-based or functional assay
human CD40 on cells [3] = molecular target: T1, human CD40 on cells; assay: FACS, CHO-K1/hCD40 cells
Excerpt: as §1, §2

[4] = molecular target: T2, cynomolgus monkey CD40 on cells (cynomolgus monkey, UniProt G7PG38 21-278); assay: FACS, CHO-K1/cyCD40 cells
T2 construct: also called cyCD40; CHO-K1/cyCD40
Excerpt: as §1, §2

T2 sequence (G7PG38 entry or part of it limits assumed): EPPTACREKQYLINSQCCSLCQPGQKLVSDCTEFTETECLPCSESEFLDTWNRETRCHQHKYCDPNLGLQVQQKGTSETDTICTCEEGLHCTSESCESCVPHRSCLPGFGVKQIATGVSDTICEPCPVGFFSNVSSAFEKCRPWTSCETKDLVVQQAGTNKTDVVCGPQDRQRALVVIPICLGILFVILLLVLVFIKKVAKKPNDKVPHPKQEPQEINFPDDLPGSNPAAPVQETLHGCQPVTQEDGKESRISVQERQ
T1 sequence (P25942 21-277): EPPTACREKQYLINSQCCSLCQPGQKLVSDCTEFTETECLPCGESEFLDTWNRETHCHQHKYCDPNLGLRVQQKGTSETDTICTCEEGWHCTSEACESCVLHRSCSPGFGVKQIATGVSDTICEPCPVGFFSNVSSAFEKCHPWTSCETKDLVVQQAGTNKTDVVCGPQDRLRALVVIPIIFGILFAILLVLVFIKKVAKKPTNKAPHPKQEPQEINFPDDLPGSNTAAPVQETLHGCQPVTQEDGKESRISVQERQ

Binder	EC50 (human CD40 on cells [1])	Maximum MFI (human CD40 on cells [1])	EC50 (nM), crosslinked, HEK293-hCD40-NFkB reporter (human CD40 on cells [2])	EC50 (nM), uncrosslinked, HEK293-hCD40-NFkB reporter (human CD40 on cells [2])	Fold (EC50 in the absence of crosslinking/EC50 in the presence of crosslinking) (human CD40 on cells [2])	Maximum fold (fold), crosslinked (human CD40 on cells [2])	Maximum fold (fold), uncrosslinked (human CD40 on cells [2])	EC50 (human CD40 on cells [3])	Maximum MFI (human CD40 on cells [3])	EC50 [4]	Maximum MFI [4]
B1	0.356 nM	8870 MFI	0.109 nM	0.905 nM	8.28 fold	5.54 fold	4.92 fold	4.9 nM	79400 MFI	4.41 nM	48000 MFI
B2	0.35 nM	12200 MFI	0.157 nM	0.708 nM	4.5 fold	5.21 fold	4.7 fold	4.87 nM	86000 MFI	3.71 nM	51000 MFI
B3	0.287 nM	9040 MFI	0.17 nM	0.321 nM	1.88 fold	4.95 fold	4.63 fold	4.55 nM	88500 MFI	3.96 nM	47700 MFI
B4	0.301 nM	8980 MFI	0.405 nM	1.04 nM	2.58 fold	5.28 fold	3.92 fold	4.65 nM	84200 MFI	3.2 nM	49800 MFI
B5	0.277 nM	9300 MFI	0.217 nM	0.43 nM	1.98 fold	5.03 fold	4.43 fold	4.8 nM	88200 MFI	3.5 nM	49700 MFI
B6	0.351 nM	8980 MFI	0.169 nM	0.301 nM	1.78 fold	5.55 fold	4.33 fold	5.01 nM	85900 MFI	4.4 nM	48500 MFI
B7	0.344 nM	8980 MFI	0.196 nM	0.462 nM	2.36 fold	5.53 fold	4.4 fold	4.97 nM	77700 MFI	4.04 nM	47300 MFI
B8	0.252 nM	9200 MFI	0.158 nM	0.479 nM	3.03 fold	4.77 fold	4.61 fold	5.09 nM	92300 MFI	3.54 nM	51700 MFI

Reference: patent publication US20250215100A1 (HARBOUR BIOMED SHANGHAI, published 2025)
